Results from patent US7250265B2, “Method of detecting and evaluating angiotensinogen receptor-modulating compounds using placental cells” (Marshfield Clinic, priority 2001, dated 2007).

B1: angiotensinogen (protein, UniProt P01019 25-476, looked up)
Angiotensinogen: DRVYIHPFHLVIHNESTCEQLAKANAGKPKDPTFIPAPIQAKTSPVDEKALQDQLVLVAAKLDTEDKLRAAMVGMLANFLGFRIYGMHSELWGVVHGATVLSPTAVFGTLASLYLGALDHTADRLQAILGVPWKDKNCTSRLDAHKVLSALQAVQGLLVAQGRADSQAQLLLSTVVGVFTAPGLHLKQPFVQGLALYTPVVLPRSLDFTELDVAAEKIDRFMQAVTGWKTGCSLMGASVDSTLAFNTYVHFQGKMKGFSLLAEPQEFWVDNSTSVSVPMLSGMGTFQHWSDIQDNFSVTQVPFTESACLLLIQPHYASDLDKVEGLTFQQNSLNWMKKLSPRTIHLTMPQLVLQGSYDLQDLLAQAELPAILHTELNLQKLSNDRIRVGEVLNSIFFELEADEREPTESTQQLNKPEVLEVTLNRPFLFAVYDQSATALHFLGRVANPLSTA
notes: AGT purified from human plasma; specific Ang I content 20 μg Ang I/mg protein
B2: ^125I-AGT: Purified AGT labeled with ^125I using iodobeads (protein, UniProt P01019 25-476, looked up)
Angiotensinogen: B1 Angiotensinogen
modifications: 125I label
notes: Purified AGT labeled with ^125I using iodobeads

What was measured:
CRL-7548 placental cells = assay: Acid wash study (surface-bound versus internalized AGT); type: cell-based, human; conditions: for bound AGT removed from the cells by acid wash: 0.2 mol/L acetic acid, 0.5 mol/L NaCl, pH 2.5, 4° C., at 8 h
Protocol: (§1) Cell Culture: CRL-7548 placental cells obtained from American Type Culture Collection were cultured in 89% Dulbecco's modification of Eagle medium (DEME) (Cellgro, Herndon, Va.), 10% fetal bovine serum (FBS) (Sigma, St. Louis, Mo.), 1% penicillin-streptomycin (5,000 U/ml and 5,000 μg/ml) (Cellgro) in a humidified atmosphere of 5.0% CO2 and […] at 37° C. The cells were passed in FBS-free DEME before experimentation, seeded in 35 mm diameter plastic wells and cultured for two days to reach about 80-90% confluence.
(§2) Purified AGT was labeled with ^125I using iodobeads Pierce, Rockford, Ill.), 5 mCi/0.5 mg AGT in 0.1 mol/L sodium phosphate buffer, pH 6.0. The bound isotope was separated from the free isotope by gel filtration on Sephadex G-25.
(§3) Labeled AGT, 3 μg, was added to each well containing 1 ml DEME and 2-3×10^4 cells. The cells were harvested at 5 min, and 2, 4, 8, 16 and 24 h, washed five times with DEME, lysed in a buffer containing 0.1 mol/L Tris, 2 mmol/L EDTA, 1% Triton-X 100, 1 μmol/L DTT, pH 7.8, and the radioactivity of the whole lysate measured. Each experiment contained two duplicates and the reported values are the mean of two experiments. The results are presented graphically in FIG. 1
This Example was carried out as described in Example 1. At 8 h, the cells in one set of duplicate wells were washed five times with DEME. Another set of duplicate samples were incubated with 0.2 mol/L acetic acid, 0.5 mol/L NaCl, pH 2.5, on ice (4° C.) for 6 min, and then washed five times with the acid wash. The control duplicates and the acid-washed duplicates were lysed and radioactivity was measured.

[1] = tested on: AGT receptor on CRL-7548 placental cells; assay: Competitive binding study (unlabeled AGT added at zero time); design: species or system human; conditions: prior addition of 100-fold excess of unlabeled AGT, FIG. 2
Protocol: as §1, §2, §3
This Example was carried out as described in Example 1, except that a 100-fold excess of unlabeled AGT was added at zero time. The cells were harvested at 5 min, and 4, 8 and 24 h. […]

[2] = tested on: AGT receptor on CRL-7548 placental cells; assay: Competitive displacement study (unlabeled AGT added at 8 h); type: binding, human
Protocol: as §1, §2, §3
[…] The cells were harvested at 5 min and at 2 intervals through 18 h.

CRL-7459 fibroblasts = assay: AGT uptake in other placental cell lines; type: cell-based; conditions: fibroblasts from human placenta at 40 weeks gestation (CRL-7459)
Text: (§4) The cells used in Examples 1-4 are fibroblasts originally derived from a human placenta obtained at 5 months gestation. Binding studies were also done with fibroblasts derived from a human placenta obtained at 37 weeks gestation (CRL-7458) and with fibroblasts derived from a human placenta at 40 weeks gestation (CRL-7459). These cells also took up AGT.

CRL-7458 fibroblasts = assay: AGT uptake in other placental cell lines; type: cell-based; conditions: fibroblasts from human placenta at 37 weeks gestation (CRL-7458)
Text: as §4

[3] = tested on: AGT receptor on CRL-7548 placental cells; assay: AGT binding: 125I-labeled AGT bound by placental-derived cells; design: species or system human; conditions: 3 μg labeled AGT per well, 2-3×10^4 CRL-7548 cells, FIG. 1
Protocol: as §1
The AGT used in the Examples was purified from human plasma as described in Tewksbury (1983) Fed. Proc. 42:2724-2728; and Tewksbury et al. (1981) Biochem. Biophys. Res. Commun. 99:1311-1315. The specific Ang I content was 20 μg Ang I/mg protein. The theoretical value is 21 μg Ang I/mg protein.
as §2
Labeled AGT, 3 μg, was added to each well containing 1 ml DEME and 2-3×10^4 cells. The cells were harvested at 5 min, and 2, 4, 8, 16 and 24 h, washed five times with DEME, lysed in a buffer containing 0.1 mol/L Tris, 2 mmol/L EDTA, 1% Triton-X 100, 1 μmol/L DTT, pH 7.8, and the radioactivity of the whole lysate measured. […]

[4] = from displacement by unlabeled AGT

Row | Molecule | bound AGT removed from the cells by acid wash (CRL-7548 placental cells) | bound AGT internalized by the cells (CRL-7548 placental cells; inferred from acid wash at 8 h) | decrease in maximal binding of 125I-AGT [1] | bound 125I-AGT displaced ([2]; excess of unlabeled AGT added, FIG. 3) | share of AGT bound to an AGT-specific receptor [2, 4] | share of total binding attributed to nonspecific binding [2, 4] | AGT uptake (CRL-7459 fibroblasts) | AGT uptake (CRL-7458 fibroblasts) | time to saturation of binding by placental-derived cells [3]
1 | B1 | 46% | about half | 54% | 70% | 70% | approximately 30% | took up AGT | took up AGT | 
2 | B2 | 46% |  |  |  |  |  |  |  | 2 to 4 h
